The record followed here is US7531500B2, “Preventing airway mucus production by administration of EGF-R antagonists” (The Regents of the University of California, priority 1998, dated 2009).

One experiment deals with NCI-H292 cells. In words: Immunoassay of MUC5AC protein in NCI-H292 cells (Example 2). The class given is cell-based, human. The procedure: Cell Culture. NCI-H292 cells, a human pulmonary mucoepidermoid carcinoma cell line, were grown in RPMI 1640 medium containing 10% fetal bovine serum, penicillin (100 U/ml), streptomycin (100 μg/ml) and Hepes (25 mM) at 37° C. in a humidified 5% CO2, water-jacketed incubator. Either 6-well culture plates or 8-chamber slides were used to culture the cells. […] The cells were then washed and incubated with fresh medium alone. Experiments were terminated at preselected times (for mRNA, 6 h and 12 h; for protein, 24 h). As controls, cells were incubated with medium alone for same time periods. […] In inhibition studies with blocking antibodies to EGF-R ligands, the supernatants were pretreated with anti-TGFα antibody (Calbiochem) or anti-EGF antibody for 30 min and then added to NCI-H292 cells. The role of oxygen free radicals was examined using scavengers of oxygen free radical DMSO (1%, Sigma), 1,3-dimethyl-2-thiourea (DMTU, 50 mM, Sigma), or superoxide dismutase (SOD, 300 U/ml, Sigma).
Preparation of Cigarette Smoke Solution. Research cigarettes (code2R1, produced for the University of Kentucky Tobacco and Health Research Foundation) were used in the study. Cigarette smoke solution was prepared as previously described (Dusser et al. (1989) J. Clin. Invest. 84:900-906). In brief, cigarette smoke was withdrawn into a polypropylene syringe (35 ml) at a rate of one puff/min (10 times) and bubbled slowly into 20 ml of RPM11640 containing 50 mM Hepes buffer. The smoke solution was then titrated to pH 7,4 and used immediately after preparation.
Immunoassay of MUC5AC Protein. MUC5AC protein was measured as described above. In brief, cell lysates were prepared with PBS at multiple dilutions, and 50 μl of each sample was incubated with bicarbonate-carbonate buffer (50 μl) at 40° C. in a 96-well plate (Maxisorp Nunc, Fisher Scientific, Santa Clara, Calif.), until dry. Plates were washed three times with PBS and blocked with 2% BSA (fraction V, Sigma) for 1 h at room temperature. Plates were again washed three times with PBS and then incubated with 50 μl of mouse monoclonal MUC5AC antibody (1:100) that was diluted with PBS containing 0.05% Tween 20. After 1 h, the wells were washed three times with PBS, and 100 μl horseradish peroxidase-goat anti-mouse IgG conjugate (1:10,000, Sigma) was dispensed into each well. After 1 h, plates were washed three times with PBS. Color reaction was developed with TMB peroxidase solution (Kirkegaard & Perry Laboratories, Gaithersburg, Md.) and stopped with 2N H2SO4. Absorbance was read at 450 nm.

The test system of a further experiment is sensitized rats. As to the kind of experiment: Goblet cell production in ovalbumin-sensitized rats (asthma model). In kind it is in vivo, rat. As to conditions: for Goblet cells in tracheal epithelium: counted over 2 mm basal lamina, 5 rats. As to the method: Sensitization. Rats were sensitized on days 0 and 10 with intraperitoneal injections of ovalbumin (10 mg, grade V; Sigma, St. Louis, Mo.), complexed with 100 mg of aluminum hydroxide in 0.5 ml of sterile saline, Rats then rested for 10 days. On day 20, ovalbumin was delivered directly into the trachea; animals were challenged with 100 μl of 0.1% ovalbumin in saline by intratracheal instillation three times (days 20, 22 and 24). Rats were euthanized either without challenge (day 20), or 48 h after the third challenge (day 26). This procedure induced goblet cell metaplasia. To block the goblet cell hyperplasia, sensitized rats were pretreated with an EGF-R tyrosine kinase inhibitor, BIBX1522. On days of ovalbumin challenge (days 20, 22 and 24), sensitized rats were pretreated with BIBX1 522 (10 mg/kg, i.p., 1 h before the challenge) and then BIBX1522 was also instilled into the trachea together with ovalbumin (BIBX1522, 10^−5M, 100 μl). BIBX1522 was also injected i.p. every 24 h until the day before the rats were euthanized. After the animals were euthanized, the trachea was removed 48 h after the third challenge.
Tissue preparation. At preselected times during anesthesia, the systemic circulation was perfused with 1% paraformaldehyde in DEPC-treated PBS at a pressure of 120 mmHg. The trachea was then removed and placed in 4% paraformaldehyde for 24 h. After fixation, trachea and lungs were embedded in either JB-4 plus monomer solution A for cell analysis or O.C.T. compound (Sakura Finetek U.S.A., Inc., Torrance, Calif.) for immunohistochemistry and in situ hybridization. The embedded tissues were cut as cross sections ([…] thick) and placed on slides.
Cell analysis. We counted the total number of epithelial cells by counting epithelial cell nuclei over 2 mm of the basal lamina with an oil immersion objective lens (×1000 magnification). The linear length of the basal lamina under each analyzed region of epithelium was determined by tracing the contour of the digitized image of the basal lamina. After instillation of stimuli, “developing” goblet cells form. These cells have Alcian blue/PAS-positive granules, but the size of granules is small, and the number of cytoplasmic granules is few. We call these “developing” goblet cells “pre-goblet cells”, a stage before cells become mature goblet cells. Goblet cells are tall, cuboidal, goblet to low columnar in shape, with abundant Alcian blue/PAS-stained granules filling most of the cytoplasm between the nucleus and the luminal surface. Pre-goblet cells are defined as cells with smaller mucus-stained areas (<1/3 height in epithelium from basement membrane to luminal surface) or with sparsely and lightly Alcian blue/PAS-stained, small granules. Ciliated cells are recognized by their ciliated borders, lightly stained cytoplasm, and large round nuclei. Non-granulated secretory cells are columnar in shape and extend from the lumen to the basal lamina. The cytoplasm stains light pink color, and a few tiny PAS-positive and Alcian blue-negative granules are observed in the cytoplasm. Basal cells are small flattened cells with a large nucleus, located just above the basal lamina but not reaching the airway lumen.
Quantification of goblet cell production. Goblet cell production, was determined by the volume density of Alcian blue/PAS-stained mucosubstances on the mucosal surface epithelium using a semi-automatic imaging system described elsewhere (Weber et al. (1984) Science 224:294-297). We measured the Alcian blue/PAS-positive stained area and the total epithelial area and expressed the data as the percentage of the total area stained by Alcian blue-PAS. The analysis was performed with the public domain NIH Image program (developed at the U.S. National Institute of Health and available from the Internet by anonymous FTP from zippy.nimh.gov or on floppy disk from the National Technical Information Service, Springfield, Va., part number PB95-500195GEI).

For the molecule `CNC(=S)NC` [DMTU, 1,3-dimethyl-2-thiourea], the “MUC5AC synthesis by supernatant of activated neutrophils, cigarette smoke and H2O2” value with NCI-H292 cells (DMSO 1%, DMTU 50 mM, SOD 300 U/ml) was “significantly inhibited”.
As to IL-8: recombinant human IL-8 (Genzyme), the “MUC5AC synthesis, stimulus alone without neutrophils” value in the experiment with NCI-H292 cells (1 h incubation, protein at 24 h, IL-8 10^-8 M, fMLP 10^-8 M, TNFα 20 ng/ml) is “no effect”.

B1: Ova: ovalbumin, grade V (Sigma), used to sensitize and challenge rats (protein, UniProt P01012 2-386, looked up)
Ovalbumin: GSIGAASMEFCFDVFKELKVHHANENIFYCPIAIMSALAMVYLGAKDSTRTQINKVVRFDKLPGFGDSIEAQCGTSVNVHSSLRDILNQITKPNDVYSFSLASRLYAEERYPILPEYLQCVKELYRGGLEPINFQTAADQARELINSWVESQTNGIIRNVLQPSSVDSQTAMVLVNAIVFKGLWEKAFKDEDTQAMPFRVTEQESKPVQMMYQIGLFRVASMASEKMKILELPFASGTMSMLVLLPDEVSGLEQLESIINFEKLTEWTSSNVMEERKIKVYLPRMKMEEKYNLTSVLMAMGITDVFSSSANLSGISSAESLKISQAVHAAHAEINEAGREVVGSAEAGVDAASVSEEFRADHPFLFCIKHIATNAVLFFGRCVSP
For B1, in the experiment on sensitized rats (Ova i.p. + i.t.), the “% of AB/PAS-stained area” value is 38.7 ± 6.2 %, the “Basal cells in tracheal epithelium” value was 59.8 ± 2.9, the “Ciliated cells in tracheal epithelium” value is on record as 52.4 ± 7.1 and the “Indeterminate cells in tracheal epithelium” value came out at 2.6 ± 0.5. Moreover, in the experiment on sensitized rats (Ova i.p. + i.t.), the “Pre-goblet cells in tracheal epithelium” value is 36.0 ± 6.3, the “Secretory cells in tracheal epithelium” value was 49.8 ± 4.2 and the “Total cells in tracheal epithelium” value came out at 238.8 ± 4.4. Also, in the experiment with sensitized rats (Ova i.p. only), the “% of AB/PAS-stained area” value turned out to be 7.8 ± 2.9%, the “Basal cells in tracheal epithelium” value was 60.2 ± 3.4, the “Ciliated cells in tracheal epithelium” value amounted to 56.4 ± 3.8 and the “Indeterminate cells in tracheal epithelium” value worked out at 1.4 ± 0.2. Moreover, in the experiment on sensitized rats (Ova i.p. only), the “Pre-goblet cells in tracheal epithelium” value was 13.8 ± 1.4, the “Secretory cells in tracheal epithelium” value is on record as 67.6 ± 7.0 and the “Total cells in tracheal epithelium” value came to 204.8 ± 6.6. For the same molecule, the “Goblet cells in tracheal epithelium” value with sensitized rats (Ova sensitization i.p. + i.t.) turned out to be 38.2 ± 6.3. The “Goblet cells in tracheal epithelium” value in the experiment with sensitized rats (Ova sensitization i.p. only) worked out at 5.4 ± 1.5.
